Data as given in article PMC2809104, “Crystal Structure and Substrate Specificity of Drosophila 3,4-Dihydroxyphenylalanine Decarboxylase” (PLoS ONE, 2010).
Values belong to the molecule of their own block, whether it stands above or below them.

How the values were obtained:
[1] = molecular target: T1, drDDC (Drosophila melanogaster, UniProt P05031, H227W/DEL476-510, form not given); experiment: HPLC-UV of decarboxylated product, Michaelis-Menten fit; format: biochemical; details: 38°C, 40 µM PLP, 150 mM potassium phosphate pH 7.0
T1 construct: gene Ddc; homodimer, PLP holoenzyme; residues 1-475
T1 sequence (P05031 1-475 isoform P05031-2 H192W): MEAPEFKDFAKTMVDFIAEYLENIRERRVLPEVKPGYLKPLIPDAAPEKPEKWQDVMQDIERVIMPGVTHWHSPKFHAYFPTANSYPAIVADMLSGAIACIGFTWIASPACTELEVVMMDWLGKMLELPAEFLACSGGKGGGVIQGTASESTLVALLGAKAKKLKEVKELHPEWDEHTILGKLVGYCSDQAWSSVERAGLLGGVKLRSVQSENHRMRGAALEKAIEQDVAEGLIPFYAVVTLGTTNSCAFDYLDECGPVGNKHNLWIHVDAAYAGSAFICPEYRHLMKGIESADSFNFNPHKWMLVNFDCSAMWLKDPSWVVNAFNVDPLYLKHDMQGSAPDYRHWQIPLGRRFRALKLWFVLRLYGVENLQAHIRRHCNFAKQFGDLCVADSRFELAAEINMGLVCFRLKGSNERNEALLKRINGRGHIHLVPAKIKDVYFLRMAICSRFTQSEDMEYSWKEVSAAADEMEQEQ
Description: (§1) HPLC-UV of decarboxylated product, Michaelis-Menten fit on drDDC

[2] = molecular target: T2, drDDC (Drosophila melanogaster, UniProt P05031, T117A/DEL476-510, form not given); experiment: as above; format: biochemical; details: 38°C, 40 µM PLP, 150 mM potassium phosphate pH 7.0
T2 construct: gene Ddc; homodimer, PLP holoenzyme; residues 1-475
T2 sequence (P05031 1-475 isoform P05031-2 T82A): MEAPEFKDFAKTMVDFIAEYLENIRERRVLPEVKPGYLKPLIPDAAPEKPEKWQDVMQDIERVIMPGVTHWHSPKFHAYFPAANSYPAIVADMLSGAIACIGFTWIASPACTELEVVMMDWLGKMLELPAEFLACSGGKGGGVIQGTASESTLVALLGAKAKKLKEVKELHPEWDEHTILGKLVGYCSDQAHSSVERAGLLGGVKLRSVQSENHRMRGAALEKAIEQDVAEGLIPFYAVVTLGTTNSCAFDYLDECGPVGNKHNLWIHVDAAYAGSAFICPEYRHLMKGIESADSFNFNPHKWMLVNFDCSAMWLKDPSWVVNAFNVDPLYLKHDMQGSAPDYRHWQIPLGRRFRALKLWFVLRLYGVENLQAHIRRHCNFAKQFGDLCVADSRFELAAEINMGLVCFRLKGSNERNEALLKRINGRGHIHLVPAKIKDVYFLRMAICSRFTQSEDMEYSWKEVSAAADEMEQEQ
Description: as §1

[3] = molecular target: T3, drDDC (Drosophila melanogaster, UniProt P05031, T117S/DEL476-510, form not given); experiment: as above; format: biochemical; details: 38°C, 40 µM PLP, 150 mM potassium phosphate pH 7.0
T3 construct: gene Ddc; homodimer, PLP holoenzyme; residues 1-475
T3 sequence (P05031 1-475 isoform P05031-2 T82S): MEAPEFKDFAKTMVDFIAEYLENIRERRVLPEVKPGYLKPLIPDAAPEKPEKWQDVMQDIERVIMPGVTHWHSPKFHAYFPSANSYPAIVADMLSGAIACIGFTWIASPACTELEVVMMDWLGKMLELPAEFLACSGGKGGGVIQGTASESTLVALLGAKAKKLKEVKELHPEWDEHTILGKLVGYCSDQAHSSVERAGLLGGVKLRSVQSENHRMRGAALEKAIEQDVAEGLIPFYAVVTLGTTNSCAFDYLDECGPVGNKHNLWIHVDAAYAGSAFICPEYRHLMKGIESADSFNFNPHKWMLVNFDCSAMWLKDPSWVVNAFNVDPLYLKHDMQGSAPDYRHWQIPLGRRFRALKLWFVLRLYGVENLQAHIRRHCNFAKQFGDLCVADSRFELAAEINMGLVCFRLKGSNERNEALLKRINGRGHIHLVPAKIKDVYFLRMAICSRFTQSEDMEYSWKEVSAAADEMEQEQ
Description: as §1

[4] = molecular target: T4, drDDC (Drosophila melanogaster, UniProt P05031); experiment: X-ray crystal structure, […] Å; format: binding; details: covalent internal aldimine (Schiff base) with K302
T4 construct: gene Ddc; homodimer, PLP holoenzyme; residues 1-475
T4 sequence (P05031 36-510): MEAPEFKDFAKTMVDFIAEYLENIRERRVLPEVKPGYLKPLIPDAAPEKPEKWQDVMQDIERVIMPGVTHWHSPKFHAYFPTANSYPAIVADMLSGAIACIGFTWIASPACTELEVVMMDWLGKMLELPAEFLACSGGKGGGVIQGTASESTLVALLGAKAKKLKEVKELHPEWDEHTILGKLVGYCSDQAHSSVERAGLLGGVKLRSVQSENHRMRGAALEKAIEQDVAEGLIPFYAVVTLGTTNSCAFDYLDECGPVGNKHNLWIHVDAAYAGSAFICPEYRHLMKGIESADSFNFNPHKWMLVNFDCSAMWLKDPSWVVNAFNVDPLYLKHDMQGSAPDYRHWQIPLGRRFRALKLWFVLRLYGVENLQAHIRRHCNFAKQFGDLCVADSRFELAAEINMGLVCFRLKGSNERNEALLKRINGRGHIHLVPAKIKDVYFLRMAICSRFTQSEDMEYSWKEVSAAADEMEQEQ

[5] = substrate: NC(Cc1ccccc1O)C(=O)O; experiment: HPLC-UV of decarboxylated product, Michaelis-Menten fit; format: biochemical, Drosophila melanogaster; details: 38°C, 40 µM PLP, 150 mM potassium phosphate pH 7.0, racemic DL substrate
Description: as §1

[6] = substrate: N[C@@H](Cc1ccc(O)c(O)c1)C(=O)O; experiment: as above; format: biochemical, Drosophila melanogaster; details: 38°C, 40 µM PLP, 150 mM potassium phosphate pH 7.0
Description: as §1

[7] = substrate: NC(Cc1cccc(O)c1)C(=O)O; experiment: as above; format: biochemical, Drosophila melanogaster; details: 38°C, 40 µM PLP, 150 mM potassium phosphate pH 7.0, racemic DL substrate
Description: as §1

[8] = substrate: N[C@@H](Cc1c[nH]c2ccc(O)cc12)C(=O)O; experiment: as above; format: biochemical, Drosophila melanogaster; details: 38°C, 40 µM PLP, 150 mM potassium phosphate pH 7.0
Description: as §1

[9] = molecular target: the molecule itself; experiment: crystal structure; hanging-drop vapor diffusion; 15% PEG 4000, 20% glycerol, 200 mM CaCl2, 100 mM cacodylic acid pH 6.5; molecular replacement with pig DDC (1js3); two molecules in the asymmetric unit

Molecule: N[C@@H](Cc1ccc(O)c(O)c1)C(=O)O [DOPA]
- Km [1]: 4.4 ± 0.8 mM
- Km [2]: 5.6 ± 1 mM
- Km [3]: 4.5 ± 0.9 mM

Molecule: NC(Cc1ccccc1O)C(=O)O (racemic) [o-tyr, DL-o-tyrosine]
- Km ([2]; racemic DL substrate): 4.9 ± 1.5 mM

Molecule: Cc1ncc(COP(=O)(O)O)c(C=O)c1O [PLP]
- X-ray crystal structure, 1.75 Å [4]: The cofactor PLP binds to K302 through a Schiff base linkage

B1: drDDC (Drosophila melanogaster) (protein)
chain: MEAPEFKDFAKTMVDFIAEYLENIRERRVLPEVKPGYLKPLIPDAAPEKPEKWQDVMQDIERVIMPGVTHWHSPKFHAYFPTANSYPAIVADMLSGAIACIGFTWIASPACTELEVVMMDWLGKMLELPAEFLACSGGKGGGVIQGTASESTLVALLGAKAKKLKEVKELHPEWDEHTILGKLVGYCSDQAHSSVERAGLLGGVKLRSVQSENHRMRGAALEKAIEQDVAEGLIPFYAVVTLGTTNSCAFDYLDECGPVGNKHNLWIHVDAAYAGSAFICPEYRHLMKGIESADSFNFNPHKWMLVNFDCSAMWLKDPSWVVNAFNVDPLYLKHDMQGSAPDYRHWQIPLGRRFRALKLWFVLRLYGVENLQAHIRRHCNFAKQFGDLCVADSRFELAAEINMGLVCFRLKGSNERNEALLKRINGRGHIHLVPAKIKDVYFLRMAICSRFTQSEDMEYSWKEVSAAADEMEQEQ
notes: homodimer, PLP holoenzyme; residues 1-475
- Km [5]: 1.1 ± 0.3 mM
- kcat [5]: 1.85 ± 0.133 s⁻¹
- kcat/Km [5]: 1680 M⁻¹ s⁻¹
- Km [6]: 2.2 ± 0.3 mM
- kcat [6]: 4.7 ± 0.0267 s⁻¹
- kcat/Km [6]: 2140 M⁻¹ s⁻¹
- Km [7]: 2.3 ± 1.2 mM
- kcat [7]: 3.56 ± 0.673 s⁻¹
- kcat/Km [7]: 1550 M⁻¹ s⁻¹
- Km [8]: 0.4 ± 0.04 mM
- kcat [8]: 1.05 ± 0.0233 s⁻¹
- kcat/Km [8]: 2620 M⁻¹ s⁻¹

B2: Drosophila melanogaster 3,4-dihydroxyphenylalanine decarboxylase, wild type (enzyme, UniProt P05031-2 1-475, looked up)
chain: MEAPEFKDFAKTMVDFIAEYLENIRERRVLPEVKPGYLKPLIPDAAPEKPEKWQDVMQDIERVIMPGVTHWHSPKFHAYFPTANSYPAIVADMLSGAIACIGFTWIASPACTELEVVMMDWLGKMLELPAEFLACSGGKGGGVIQGTASESTLVALLGAKAKKLKEVKELHPEWDEHTILGKLVGYCSDQAHSSVERAGLLGGVKLRSVQSENHRMRGAALEKAIEQDVAEGLIPFYAVVTLGTTNSCAFDYLDECGPVGNKHNLWIHVDAAYAGSAFICPEYRHLMKGIESADSFNFNPHKWMLVNFDCSAMWLKDPSWVVNAFNVDPLYLKHDMQGSAPDYRHWQIPLGRRFRALKLWFVLRLYGVENLQAHIRRHCNFAKQFGDLCVADSRFELAAEINMGLVCFRLKGSNERNEALLKRINGRGHIHLVPAKIKDVYFLRMAICSRFTQSEDMEYSWKEVSAAADEMEQEQ
modifications: lysine-pyridoxal-5-phosphate (LLP): PLP bound to K302 through a Schiff base (internal aldimine)
notes: the forward primer begins at ATG GAG GCG CCG GAG TTC (MEAPEF); also called drDDC; drDDC WT; source: Escherichia coli DE3, purified (chitin beads, DEAE-Sepharose, Mono-Q, gel filtration)
- stoichiometry N [9]: 2

Continued, values first:

- Km [1]: 1.1 ± 0.1 mM
- Km [2]: 3.5 ± 0.5 mM
- Km [3]: 0.6 ± 0.1 mM
Molecule: N[C@@H](Cc1c[nH]c2ccc(O)cc12)C(=O)O [5-HTP]

- Km ([1]; racemic DL substrate): 2.6 ± 1.1 mM
- Km ([2]; racemic DL substrate): 13.3 ± 4.5 mM
- Km ([3]; racemic DL substrate): 11.4 ± 2.2 mM
Molecule: NC(Cc1cccc(O)c1)C(=O)O (racemic) [m-tyr, DL-m-tyrosine]
